Measured values taken from the supplement of paper PMC9876800.

Test system: peptide library, one residue held at a place counted from the S/T acceptor
Experiment: relative phosphorylation of the sub-library (ratio to the mean residue at this position); human; higher = residue favoured
Procedure, shortened: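 Purified recombinant kinases, either human or orthologue constructs, were incubated in 384-well plates with biotinylated degenerate peptide sub-libraries. Each sub-library fixed one residue at one position around a central Ser/Thr. Peptides at 50 μM and 50 μM ATP spiked with γ-32P-ATP were used for 90 min under kinase-specific conditions, and spots on streptavidin membranes were phosphorimaged and quantified by densitometry. Relative sub-library phosphorylation is expressed as a ratio to the mean residue at that position.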

GRK2, construct: Full length, sequence (P25098 whole entry, looked up): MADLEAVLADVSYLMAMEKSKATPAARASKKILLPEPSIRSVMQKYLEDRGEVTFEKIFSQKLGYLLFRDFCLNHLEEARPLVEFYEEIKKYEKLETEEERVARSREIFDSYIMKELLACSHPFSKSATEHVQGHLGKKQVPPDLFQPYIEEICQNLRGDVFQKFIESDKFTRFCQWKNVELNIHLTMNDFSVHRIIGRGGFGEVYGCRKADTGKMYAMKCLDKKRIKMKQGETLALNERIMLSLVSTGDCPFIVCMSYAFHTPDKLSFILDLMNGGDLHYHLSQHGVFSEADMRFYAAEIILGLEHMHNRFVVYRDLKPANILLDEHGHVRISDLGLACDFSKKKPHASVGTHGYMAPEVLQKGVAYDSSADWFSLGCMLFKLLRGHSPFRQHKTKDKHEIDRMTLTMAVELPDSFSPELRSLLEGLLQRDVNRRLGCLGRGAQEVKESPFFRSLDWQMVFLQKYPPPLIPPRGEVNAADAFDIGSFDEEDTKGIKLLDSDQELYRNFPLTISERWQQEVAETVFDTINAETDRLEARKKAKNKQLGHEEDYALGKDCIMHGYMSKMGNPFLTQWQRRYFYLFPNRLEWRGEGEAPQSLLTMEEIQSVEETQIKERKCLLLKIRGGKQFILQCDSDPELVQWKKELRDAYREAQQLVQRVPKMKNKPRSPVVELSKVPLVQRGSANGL
EIF2AK1, construct: Full length, sequence (Q9BQI3 whole entry, looked up): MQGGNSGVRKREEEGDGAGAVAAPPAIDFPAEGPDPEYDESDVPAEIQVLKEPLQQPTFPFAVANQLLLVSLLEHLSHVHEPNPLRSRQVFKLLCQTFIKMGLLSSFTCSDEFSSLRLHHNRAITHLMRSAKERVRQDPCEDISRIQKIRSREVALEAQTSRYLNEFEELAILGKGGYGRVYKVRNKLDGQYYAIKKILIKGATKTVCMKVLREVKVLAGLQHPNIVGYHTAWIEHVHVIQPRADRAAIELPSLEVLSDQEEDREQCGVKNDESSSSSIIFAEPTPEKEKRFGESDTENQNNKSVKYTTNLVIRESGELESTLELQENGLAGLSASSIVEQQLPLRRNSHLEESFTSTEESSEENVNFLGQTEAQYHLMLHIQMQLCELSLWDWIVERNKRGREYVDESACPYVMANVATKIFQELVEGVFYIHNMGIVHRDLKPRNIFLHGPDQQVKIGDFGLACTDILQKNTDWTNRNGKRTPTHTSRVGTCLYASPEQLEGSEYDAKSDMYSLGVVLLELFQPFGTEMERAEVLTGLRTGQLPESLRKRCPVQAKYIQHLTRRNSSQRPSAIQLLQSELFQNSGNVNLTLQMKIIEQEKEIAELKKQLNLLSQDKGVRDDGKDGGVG
CSNK1G3, construct: Full length, sequence (Q9Y6M4 whole entry, looked up): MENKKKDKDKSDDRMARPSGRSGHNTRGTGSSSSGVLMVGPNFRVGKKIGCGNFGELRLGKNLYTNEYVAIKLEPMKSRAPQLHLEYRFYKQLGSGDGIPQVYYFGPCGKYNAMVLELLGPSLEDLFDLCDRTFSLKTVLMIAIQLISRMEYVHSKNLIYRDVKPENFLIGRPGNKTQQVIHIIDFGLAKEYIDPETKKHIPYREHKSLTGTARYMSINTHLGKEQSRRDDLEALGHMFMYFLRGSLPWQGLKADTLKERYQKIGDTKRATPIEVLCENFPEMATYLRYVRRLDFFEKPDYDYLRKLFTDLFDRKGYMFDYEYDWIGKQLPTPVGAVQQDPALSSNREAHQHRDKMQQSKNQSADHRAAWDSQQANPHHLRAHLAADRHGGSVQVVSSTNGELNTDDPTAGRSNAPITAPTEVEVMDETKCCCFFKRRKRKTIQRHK
CSNK2A1, construct: Full length, sequence (P68400 whole entry, looked up): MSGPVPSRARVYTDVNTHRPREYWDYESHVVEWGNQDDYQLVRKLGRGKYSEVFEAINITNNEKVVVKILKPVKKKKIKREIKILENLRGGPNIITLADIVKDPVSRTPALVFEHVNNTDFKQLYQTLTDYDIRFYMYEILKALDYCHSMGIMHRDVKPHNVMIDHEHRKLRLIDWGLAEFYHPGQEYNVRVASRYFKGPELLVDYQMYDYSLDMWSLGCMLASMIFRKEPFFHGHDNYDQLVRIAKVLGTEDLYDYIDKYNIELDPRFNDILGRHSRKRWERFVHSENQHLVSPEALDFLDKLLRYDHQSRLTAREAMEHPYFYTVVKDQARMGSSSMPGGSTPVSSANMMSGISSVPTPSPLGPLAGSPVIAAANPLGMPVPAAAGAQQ

CSNK1G3, construct: Full length (from UniProt Q9Y6M4)
relative phosphorylation
Conditions	at +1	at +2	at +3	at +4	at -1	at -2	at -3	at -4	at -5
A fixed	0.678	0.743	0.752	0.708	0.916	1.39	0.508	0.923	1.01
D fixed	0.543	0.941	2.63	1.12	0.701	1.08	5.05	1.58	1.8
E fixed	0.611	0.607	1.46	0.928	0.788	1.27	3.58	1.78	1.62
F fixed	1.07	1.17	1.22	1.43	0.905	0.576	0.522	1.07	0.859
G fixed	0.459	0.67	0.931	1.07	0.635	0.903	0.475	0.818	0.86
H fixed	0.841	1.44	0.901	0.991	0.949	0.716	0.548	0.898	0.988
I fixed	1.81	1.02	0.58	0.696	1.39	0.963	0.467	0.714	0.82
K fixed	0.778	0.952	0.672	0.822	1	0.832	0.652	0.763	0.896
L fixed	2.24	1.1	0.772	0.808	1.23	1.05	0.484	0.796	0.91
M fixed	1.58	0.945	0.748	0.989	1.32	0.882	0.504	0.872	0.96
N fixed	0.721	1.06	1.05	0.947	0.781	1.57	0.645	0.801	1.04
P fixed	0.443	0.482	0.683	0.97	0.579	0.471	0.418	0.897	0.658
Q fixed	0.843	0.864	0.869	0.879	1.1	1.26	0.528	0.788	0.79
R fixed	1.03	1.25	0.877	1.02	1.28	1.54	1.02	0.845	0.992
V fixed	1.5	0.936	0.794	0.814	1.23	1.17	0.458	0.669	0.876
W fixed	1.01	1.23	1.11	1.48	1.22	0.715	0.581	1.69	1.05
Y fixed	0.855	1.59	0.941	1.33	0.974	0.613	0.56	1.1	0.877
pThr fixed	0.618	0.558	1.52	2.55	0.636	4.34	144	10.2	4.37
pTyr fixed	1.13	5.14	9.54	2.97	0.797	1.85	12.1	5.93	2.97

CSNK2A1, construct: Full length (from UniProt P68400)
relative phosphorylation
Conditions	at +1	at +2	at +3	at +4	at -1	at -2	at -3	at -4	at -5
A fixed	0.479	1.2	0.406	0.847	0.867	1.02	0.979	1.01	1.09
D fixed	9.09	3.13	2.81	2.06	3.14	1.45	1.78	1.79	1.46
E fixed	3.33	2.03	9.11	2.6	2.33	1.37	1.53	1.56	1.2
F fixed	0.24	0.739	0.307	0.878	0.886	1.04	0.97	0.88	0.976
G fixed	0.561	0.782	0.533	1.06	0.687	0.891	1.65	1.03	0.98
H fixed	0.333	0.993	0.347	0.75	0.829	0.968	0.907	0.895	1.08
I fixed	0.208	0.654	0.249	0.811	0.61	0.94	0.759	0.839	0.883
K fixed	0.23	0.374	0.236	0.53	0.48	0.458	0.566	0.76	0.963
L fixed	0.237	0.499	0.246	0.64	0.926	0.693	0.702	0.892	0.726
M fixed	0.259	0.524	0.257	0.916	0.934	0.705	0.823	0.941	0.911
N fixed	0.5	1.42	0.455	0.904	0.796	0.813	1.05	1.04	1.05
P fixed	0.232	0.543	0.412	0.597	0.541	0.778	0.853	0.807	0.751
Q fixed	0.352	0.68	0.4	0.832	0.922	0.678	0.869	0.867	0.808
R fixed	0.221	0.426	0.258	0.553	0.435	0.589	0.657	0.87	0.943
V fixed	0.249	0.923	0.263	0.76	0.751	0.859	0.801	0.826	0.969
W fixed	0.236	1.16	0.328	1.32	0.914	1.12	0.897	0.927	1.15
Y fixed	0.238	0.923	0.385	0.933	0.954	2.62	1.21	1.08	1.06
pThr fixed	5.46	1.84	1.96	6.46	1.96	1.59	2.22	1.83	1.39
pTyr fixed	0.808	2.14	4.29	3.87	3.49	2.41	2.37	1.4	1.47

EIF2AK1, construct: Full length (from UniProt Q9BQI3)
relative phosphorylation
Conditions	at +1	at +2	at +3	at +4	at -1	at -2	at -3	at -4	at -5
A fixed	0.697	0.999	0.699	0.762	0.698	0.907	1.04	0.971	0.979
D fixed	0.365	0.489	0.403	0.602	1.26	3.35	1.11	0.87	0.672
E fixed	0.358	0.382	0.388	0.565	1.01	2.47	0.857	0.724	0.619
F fixed	1.5	0.874	1.3	0.975	1.09	0.752	0.955	1.15	1.31
G fixed	1.21	0.923	1.09	0.945	0.469	0.846	0.936	0.89	0.897
H fixed	0.788	1.24	1.12	1.01	1.56	1.1	1.04	1.03	0.962
I fixed	1.24	0.954	0.788	0.809	1.19	0.606	1.09	1.1	1.29
K fixed	0.975	1.74	1.59	1.49	0.796	0.648	0.864	0.998	1
L fixed	1.08	0.747	0.904	0.936	1.15	0.56	1.07	1.06	1.08
M fixed	1.77	0.895	0.938	0.893	1.16	0.726	1.29	1.07	1.04
N fixed	0.991	1.12	0.808	0.964	1.14	0.783	0.904	0.826	0.728
P fixed	0.293	0.692	0.917	0.893	0.374	0.581	0.695	0.73	0.79
Q fixed	1.02	0.889	0.77	0.923	0.761	0.809	0.842	0.751	0.696
R fixed	1.79	1.99	2.1	1.9	1.07	0.73	0.958	1.03	1.16
V fixed	0.705	0.903	0.733	0.612	1.07	0.58	0.731	0.93	1.06
W fixed	1.02	0.918	1.26	1.57	0.731	0.787	1.23	1.59	1.44
Y fixed	1.2	1.25	1.19	1.15	1.46	0.764	1.38	1.28	1.27
pThr fixed	0.374	0.484	0.489	0.601	0.504	0.816	0.761	0.647	0.631
pTyr fixed	0.536	0.481	0.569	0.607	2.17	0.943	0.981	0.732	0.792

GRK2, construct: Full length (from UniProt P25098)
relative phosphorylation
Conditions	at +1	at +2	at +3	at +4	at -1	at -2	at -3	at -4	at -5
A fixed	0.812	1.17	0.782	0.874	0.876	0.822	1.03	0.901	0.914
D fixed	1.1	0.929	1.42	1.35	1.14	1.38	1.9	1.41	1.34
E fixed	1.47	0.883	1.37	1.25	1.34	3.01	2.28	1.54	1.13
F fixed	1.27	1.18	1.13	1.02	1.02	0.961	0.768	0.915	1.14
G fixed	0.766	0.755	0.817	0.928	0.726	0.718	0.766	0.897	0.839
H fixed	0.977	1.09	1.02	1.07	1.06	0.813	0.831	0.969	0.931
I fixed	1.03	1.18	0.892	0.892	0.862	0.724	0.732	0.847	0.898
K fixed	0.79	0.747	0.778	0.84	0.919	0.741	0.815	0.965	0.912
L fixed	0.883	0.886	1.01	0.935	0.928	0.832	0.742	0.899	0.88
M fixed	1.08	0.965	0.981	0.975	0.971	0.872	0.8	0.951	0.931
N fixed	0.879	0.969	0.996	1.07	1.04	0.926	0.924	0.99	0.95
P fixed	0.791	0.627	0.765	0.926	1.24	0.931	0.864	0.975	0.896
Q fixed	1.12	0.872	0.939	0.994	0.978	0.928	0.889	0.944	0.91
R fixed	0.838	0.768	0.791	0.843	0.979	0.974	1.43	0.998	1.04
V fixed	1.15	1.37	0.855	0.854	0.911	0.701	0.665	0.813	0.918
W fixed	1.04	1.3	1.25	1.18	0.876	0.832	0.789	1.06	1.19
Y fixed	1.01	1.31	1.22	0.998	1.12	0.843	0.787	0.932	1.18
pThr fixed	7.25	1.18	1.22	1.95	1.18	3.63	3.44	2.09	1.27
pTyr fixed	2.37	1.57	1.47	1.62	2.11	14.3	3.56	2.58	1.57
